Measured values: patent publication US20090304651A1 (published 2009)
Where two headings read alike, the source gives them in different places.

How the values were obtained:
[1] = biological target: T1, recombinant human IGF-II (Insulin-like Growth Factor II) (human, UniProt P01344 25-91, biotinylated (Biotinyl-IGF-II, GroPep) where immobilised in SPR, site not stated; not biotinylated in ITC and as SPR analyte); experiment: SPR, steady-state KD relative to wild type
T1 construct: also called IGF2; IGF-2
T1 sequence (P01344 25-91 limits assumed): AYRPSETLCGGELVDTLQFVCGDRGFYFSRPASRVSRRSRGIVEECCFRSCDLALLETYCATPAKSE
Experimental: (§1) Duplicate analyte injections were performed at concentrations of 4096, 2048, 1024, 512, 256, 128, 64, 32, 16 and 8 nM.
(§2) Kinetic analysis by Surface Plasmon Resonance (SPR) was conducted on a BIAcore 3000 biosensor (BIAcore, Uppsala, Sweden) at 25° C. in HBS-EP (10 mM HEPES, pH 7.4, 150 mM NaCl, 3 mM EDTA, 0.005% surfactant P20) at a flow rate of 40 μl/min. […] Kinetic experiments consisted of a two minute injection of analyte followed by a 100 s dissociation phase in running buffer, after which the binding surface was regenerated with a 2 minute injection of 2 M MgCl₂. A blank flow cell was used for in-line reference subtraction of changes due to differences in refractive index of running buffer versus sample and a buffer-only injection was used to subtract instrument noise and drift. Injections were performed in duplicate for each concentration and in a randomised order. Kinetic parameters were determined by global fitting of sensorgrams to a two-state (conformational change) binding model using BIAevaluation software version 4.0.1. In all cases the minor component made an insignificant contribution to the overall affinity and as such only the kinetic parameters of the major binding component were used. For each interaction the dissociation affinity constant (KD) was also calculated by fitting of the response of each concentration at equilibrium to a steady-state affinity model using BIAevaluation.

[2] = biological target: T1, recombinant human IGF-II (Insulin-like …); experiment: SPR, IGF-II immobilised, kinetic fit
Outline: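 Pichia pastoris-secreted, His-tag-purified domain 11 proteins were injected in duplicate, in randomised order, over ~50 RU biotinylated IGF-II captured on a streptavidin Sensor Chip SA. Runs used a BIAcore 3000 at 25° C in HBS-EP at 40 μl/min, with 2 min injections, 100 s dissociation and 2 M MgCl₂ regeneration. Analyte ran at 4096–8 nM, or 16384–32 nM for three constructs. Association and dissociation rates and Kd came from global sensorgram fitting in BIAevaluation 4.0.1, after blank-flow-cell and buffer-injection subtraction.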

[3] = biological target: T1, recombinant human IGF-II (Insulin-like …); experiment: SPR, IGF-II immobilised, steady state
Outline: (§3)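 Pichia pastoris-secreted, His-tag-purified domain 11 proteins were injected in duplicate over ~50 RU biotinylated IGF-II on a streptavidin Sensor Chip SA. Runs used a BIAcore 3000 at 25° C in HBS-EP at 40 μl/min, with 2 min injections and blank-flow-cell and buffer-injection subtraction. Analyte ran at 4096–8 nM, or 16384–32 nM for three constructs.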

[4] = biological target: T1, recombinant human IGF-II (Insulin-like …); experiment: SPR, steady-state KD relative to wild type; remark: listed apart in the source
Outline: as §3

[5] = biological target: T1, recombinant human IGF-II (Insulin-like …); experiment: SPR, IGF-II immobilised, kinetic fit; remark: listed apart in the source
Experimental: as §1, §2

[6] = biological target: T1, recombinant human IGF-II (Insulin-like …); experiment: SPR, IGF-II immobilised, steady state; remark: listed apart in the source
Experimental: as §1, §2

[7] = biological target: T1, recombinant human IGF-II (Insulin-like …); experiment: SPR, IGF-II immobilised, steady state; remark: listed apart in the source
Experimental: as §2, with “BIAevaluation. In order to investigate the influence of ionic strength, kinetic experiments were conducted in HBS-EP running buffers containing the desired NaCl concentration. In each case, analyte samples were made up in the appropriate running buffer prior to injection.” for “BIAevaluation.”
(§4) Following purification, the binding of each mutant construct to IGF2 was assessed by SPR and compared to the wild type domain 11. Sensorgrams were generated using biotinylated IGF2 immobilised to the cell surface and mutant domain 11 proteins as the free analyte (FIG. 4).

[8] = biological target: T1, recombinant human IGF-II (Insulin-like …); experiment: SPR, steady-state KD relative to wild type; remark: listed apart in the source
Experimental: […]. Values are the mean±S.E.M. of three separate experiments.
as §2, with “BIAevaluation. In order to investigate the influence of ionic strength, kinetic experiments were conducted in HBS-EP running buffers containing the desired NaCl concentration. In each case, analyte samples were made up in the appropriate running buffer prior to injection.” for “BIAevaluation.”
Following purification, the binding of each mutant construct to IGF2 was assessed by SPR and compared to the wild type domain 11.

[9] = biological target: T1, recombinant human IGF-II (Insulin-like …); experiment: SPR, IGF-II immobilised, kinetic fit; remark: listed apart in the source
Experimental: as §2, with “BIAevaluation. In order to investigate the influence of ionic strength, kinetic experiments were conducted in HBS-EP running buffers containing the desired NaCl concentration. In each case, analyte samples were made up in the appropriate running buffer prior to injection.” for “BIAevaluation.”
as §4

[10] = biological target: T1, recombinant human IGF-II (Insulin-like …); experiment: ITC, IGF-II titrated into domain 11
Experimental: Calorimetric measurements were performed using a VP-ITC microcalorimeter (MicroCal). All solutions were thoroughly degassed before use by stirring under vacuum. […] The sample cell contained either wild type domain 11 (7 uM) or the E1544A mutant (8 μM), also in HBS-E buffer. To correct for the heat effects of dilution and mixing, reaction heats obtained from a control experiment, in which IGF2 was injected into HBS-E, were subtracted. Calorimetric data were analysed using MicroCal ORIGIN software (version 5.0) supplied with the instrument. Thermodynamic parameters were derived by fitting the binding isotherms to a single-site binding model. Values for dissociation affinity constants (KD) were determined from duplicate experiments.
In order to validate the SPR sensorgram data, ITC was used to assess the binding affinity between domain 11 and IGF-II. The affinity of the E1544A mutant was also assessed by ITC in order to confirm whether use of a second technique agreed as to the apparent increase in affinity (FIG. 6 and Table 6). Titrations were performed using 17×15 μl injections of 40 μM IGF-II (after an initial 7.51 injection) into the reaction cell containing wild type domain 11 or the E1544A mutant. […] The two fold differences may be simply accounted for by the fidelity of both techniques.

[11] = biological target: T1, recombinant human IGF-II (Insulin-like …); experiment: SPR (Biacore)

Relative Affinity [1]	Kd [2] [nM]	koff [2] [s⁻¹]	kon [2] [M⁻¹ s⁻¹]	Kd [3] [nM]	Relative Affinity [4]	Kd [5] [nM]	koff [5] [s⁻¹]	kon [5] [M⁻¹ s⁻¹]	Kd [6] [nM]	Kd [7] [nM]	Relative Affinity [8]	Kd [9] [nM]	koff [9] [s⁻¹]	kon [9] [M⁻¹ s⁻¹]	Kd [10] [nM]	Kd [11] [nM]	Binder
1.96 fold (wild type = 1.00)	60.5	0.0675	1.12e+06	52.7	1.96 fold (wild type = 1.00)	49.8	0.041	837000	52.7								IGF2R domain 11 E1544V (amino acids 1511-1650, C-terminal His6 tag, from Pichia pastoris) (receptor) NEHDDCQVTNPSTGHLFDLSSLSGRAGFTAAYSVKGLVYMSICGENENCPPGVGACFGQTRISVGKANKRLRYVDQVLQLVYKDGSPCPSKSGLSYKSVISFVCRPEAGPTNRPMLISLDKQTCTLFFSWHTPLACEQATHHHHHH
										930	0.11 fold (wild type = 1.00)	954	0.281	295000			IGF2R domain 11 T1570A (amino acids 1511-1650, C-terminal His6 tag, from Pichia pastoris) (receptor) NEHDDCQVTNPSTGHLFDLSSLSGRAGFTAAYSEKGLVYMSICGENENCPPGVGACFGQARISVGKANKRLRYVDQVLQLVYKDGSPCPSKSGLSYKSVISFVCRPEAGPTNRPMLISLDKQTCTLFFSWHTPLACEQATHHHHHH
										633	0.16 fold (wild type = 1.00)	639	0.169	265000			IGF2R domain 11 Y1542A (amino acids 1511-1650, C-terminal His6 tag, from Pichia pastoris) (receptor) NEHDDCQVTNPSTGHLFDLSSLSGRAGFTAAASEKGLVYMSICGENENCPPGVGACFGQTRISVGKANKRLRYVDQVLQLVYKDGSPCPSKSGLSYKSVISFVCRPEAGPTNRPMLISLDKQTCTLFFSWHTPLACEQATHHHHHH
										130	0.8 fold (wild type = 1.00)	130	0.069	529000	209	130	IGF2R domain 11 Q1569A (amino acids 1511-1650, C-terminal His6 tag, from Pichia pastoris) (receptor) NEHDDCQVTNPSTGHLFDLSSLSGRAGFTAAYSEKGLVYMSICGENENCPPGVGACFGATRISVGKANKRLRYVDQVLQLVYKDGSPCPSKSGLSYKSVISFVCRPEAGPTNRPMLISLDKQTCTLFFSWHTPLACEQATHHHHHH
										289	0.36 fold (wild type = 1.00)	287	0.078	273000			IGF2R domain 11 K1545A (amino acids 1511-1650, C-terminal His6 tag, from Pichia pastoris) (receptor) NEHDDCQVTNPSTGHLFDLSSLSGRAGFTAAYSEAGLVYMSICGENENCPPGVGACFGQTRISVGKANKRLRYVDQVLQLVYKDGSPCPSKSGLSYKSVISFVCRPEAGPTNRPMLISLDKQTCTLFFSWHTPLACEQATHHHHHH
										262	0.39 fold (wild type = 1.00)	260	0.096	369000			IGF2R domain 11 S1543A (amino acids 1511-1650, C-terminal His6 tag, from Pichia pastoris) (receptor) NEHDDCQVTNPSTGHLFDLSSLSGRAGFTAAYAEKGLVYMSICGENENCPPGVGACFGQTRISVGKANKRLRYVDQVLQLVYKDGSPCPSKSGLSYKSVISFVCRPEAGPTNRPMLISLDKQTCTLFFSWHTPLACEQATHHHHHH
										170	0.61 fold (wild type = 1.00)	179	0.079	441000	324	170	IGF2R domain 11 S1596A (amino acids 1511-1650, C-terminal His6 tag, from Pichia pastoris) (receptor) NEHDDCQVTNPSTGHLFDLSSLSGRAGFTAAYSEKGLVYMSICGENENCPPGVGACFGQTRISVGKANKRLRYVDQVLQLVYKDGAPCPSKSGLSYKSVISFVCRPEAGPTNRPMLISLDKQTCTLFFSWHTPLACEQATHHHHHH
